Experimental data taken from article PMC7939481.

Target: human CaV2.1 (P/Q-type) voltage-gated calcium channel (human)

Substance “human G-protein Gβ1γ2 heterodimer (from UniProt P62873-1 1-340; P59768 1-71) (complex)” has a τ activation of hCaV2.1 macroscopic current with co-expressed human Gβ1γ2, after a +150 mV prepulse of 3.26 ms and a τ activation of hCaV2.1 macroscopic current with co-expressed human Gβ1γ2, without prepulse (1.16-1.20 ms without G proteins) of 10.6 ms.
